Patent US12590158 (XIYUAN ANJIAN MEDICINE SHANGHAI, dated 2026)

Tests used:
[1] = biological target: T1, human TrkC expressed on CHO cells (TrkC/CHO, ThermoFisher K1515) (human, UniProt Q16288 32-839); assay: flow cytometry on TrkC/CHO cells, FITC goat anti-human Fc
T1 construct: whole, on cells
Description: (§1) CHO-K1 was used as a negative control. The binding of the humanized antibodies to the four cell lines was detected by flow cytometry.
(§2) The cells were cultured according to the manufacturer's instruction. The cells were harvested in the logarithmic growth phase, re-suspended in flow buffer (PBS+2% FBS, pH 7.4), and added into 96-well plate, 10^5 cells per well (50 µl). 50 µl of 100 µg/mL humanized anti-TrkA antibody was added, incubated at room temperature for 60 min, and centrifuged at 1200 rpm. The supernatant was discarded and the cells were washed 3 times. FITC-labeled goat anti-human Fc antibody (Abeam, ab97224) was diluted to 5 µg/mL with flow buffer and used to re-suspend the cells, incubated at room temperature for 30 min in the dark, centrifuged, and the supernatant was discarded. After washing 3 times, the cells were re-suspended with 7AAD solution (Biolegend, 420403), incubated for 10 min at room temperature, and the binding of the antibody was detected with a flow cytometer (BioRad, ZE5).

[2] = biological target: T2, human TrkB expressed on CHO cells (TrkB/CHO, ThermoFisher K1491) (human, UniProt Q16620 32-822); assay: flow cytometry on TrkB/CHO cells, FITC goat anti-human Fc
T2 construct: whole, on cells
T2 sequence (Q16620 32-822): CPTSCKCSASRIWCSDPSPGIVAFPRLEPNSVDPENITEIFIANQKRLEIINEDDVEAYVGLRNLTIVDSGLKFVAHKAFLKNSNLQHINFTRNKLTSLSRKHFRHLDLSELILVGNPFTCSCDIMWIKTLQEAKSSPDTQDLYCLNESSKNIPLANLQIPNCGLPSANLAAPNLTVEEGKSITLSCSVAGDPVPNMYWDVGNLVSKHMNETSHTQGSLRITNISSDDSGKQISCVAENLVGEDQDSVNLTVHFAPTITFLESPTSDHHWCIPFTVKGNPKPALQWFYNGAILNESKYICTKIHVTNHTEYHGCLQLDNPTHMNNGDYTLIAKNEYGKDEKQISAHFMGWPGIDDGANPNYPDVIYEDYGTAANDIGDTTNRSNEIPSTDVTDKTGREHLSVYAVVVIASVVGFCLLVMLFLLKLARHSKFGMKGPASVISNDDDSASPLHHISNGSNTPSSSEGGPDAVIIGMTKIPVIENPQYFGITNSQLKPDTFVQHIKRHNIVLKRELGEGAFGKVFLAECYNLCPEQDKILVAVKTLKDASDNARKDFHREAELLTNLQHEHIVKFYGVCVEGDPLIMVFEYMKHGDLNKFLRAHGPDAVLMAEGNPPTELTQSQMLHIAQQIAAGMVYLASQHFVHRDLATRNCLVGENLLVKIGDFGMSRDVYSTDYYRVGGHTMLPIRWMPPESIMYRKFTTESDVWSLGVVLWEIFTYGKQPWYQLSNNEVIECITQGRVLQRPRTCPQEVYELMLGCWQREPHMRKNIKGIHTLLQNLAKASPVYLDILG
Description: as §1, §2

T1 sequence (Q16288 32-839): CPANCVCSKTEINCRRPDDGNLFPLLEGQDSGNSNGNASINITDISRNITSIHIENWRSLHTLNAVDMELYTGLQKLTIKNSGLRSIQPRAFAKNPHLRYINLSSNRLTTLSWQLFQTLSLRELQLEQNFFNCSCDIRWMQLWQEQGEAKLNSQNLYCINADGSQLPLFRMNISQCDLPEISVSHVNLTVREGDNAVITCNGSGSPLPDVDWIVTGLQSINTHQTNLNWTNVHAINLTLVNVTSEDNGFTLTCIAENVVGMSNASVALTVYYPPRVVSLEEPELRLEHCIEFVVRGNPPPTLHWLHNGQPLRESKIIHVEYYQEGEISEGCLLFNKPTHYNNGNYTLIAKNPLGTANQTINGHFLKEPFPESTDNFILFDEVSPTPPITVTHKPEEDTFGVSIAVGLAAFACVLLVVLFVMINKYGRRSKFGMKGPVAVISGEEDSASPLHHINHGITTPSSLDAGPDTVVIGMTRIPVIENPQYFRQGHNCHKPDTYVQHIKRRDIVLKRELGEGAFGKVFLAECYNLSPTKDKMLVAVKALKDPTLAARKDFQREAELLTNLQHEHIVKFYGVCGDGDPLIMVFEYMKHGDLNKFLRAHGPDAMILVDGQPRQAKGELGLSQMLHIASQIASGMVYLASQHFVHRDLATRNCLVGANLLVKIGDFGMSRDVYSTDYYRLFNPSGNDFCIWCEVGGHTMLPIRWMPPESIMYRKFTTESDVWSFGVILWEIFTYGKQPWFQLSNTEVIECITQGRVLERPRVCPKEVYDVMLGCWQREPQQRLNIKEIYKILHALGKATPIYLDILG

binding result [1]: no binding
binding result [2]: no binding
B1: humanized anti-TrkA antibody 42F5-15 (antibody, V domains shown)
VH: QVQLVQSGAEVKKPGASVKVSCKSSGYTFTNYWMHWVRQAPGQGLEWMGEIYPNNARVNYNEKFKNRVTMTVDISISTAYMELSRLRSDDTAVYYCARSRYDPMEDWGQGTTVTVSS
VL: DVQLTQSPSSLSASVGDRVTITCSASSSVGYMHWYQQKPGKAPKRLIYDTSKLASGVPSRFSGSGSGTDYTLTISSLQPEDFATYFCQQWSSIPLTFGQGTRLEIK
notes: 42F5-01 with NG55-56 of the VH mutated to NA55-56
